These results are taken from paper PMC8016135, “Observation of arenavirus nucleoprotein heptamer assembly” (FEBS Open Bio, 2021).

This data set deals with the molecule itself. In words: negative stain transmission electron microscopy.

B1: Mopeia virus nucleoprotein (natural protein, UniProt P19239 1-570, looked up)
chain: MSNSKEVKSFLWTQSLRRELSGYCSNIKIQVIKDAQALLHGLDFSEVANVQRLMRKEKRDDSDLKRLRDLNQAVNNLVELKSVQQKNVLRVGTLTSDDLLVLAADLDRLKAKVIRGERPLAAGVYMGNLTAQQLEQRRVLLQMVGMGGGFRAGNTLGDGIVRVWDVRNPELLNNQFGTMPSLTIACMCKQGQADLNDVIQSLSDLGLVYTAKYPNMSDLDKLSQTHPILGIIEPKKSAINISGYNFSLSAAVKAGACLIDGGNMLETIKVTKSNLEGILKAALKVKRSLGMFVSDTPGERNPYENLLYKLCLSGEGWPYIASRTSIVGRAWDNTTVDLSGDVQQNAKPDKGNSNRLAQAQGMPAGLTYSQTMELKDSMLQLDPNAKTWIDIEGRPEDPVEIAIYQPNNGQYIHFYREPTDIKQFKQDSKHSHGIDIQDLFSVQPGLTSAVIESLPKNMVLSCQGADDIRKLLDSQNRRDIKLIDVSMQKDDARKFEDKIWDEYKHLCRMHTGIVTQKKKRGGKEEVTPHCALLDCLMFEAAVIGSPQIPTPRPVLSRDLVFRTGPPRVVL
notes: Nucleoprotein (NP, ~63 kDa) of Mopeia virus (MOPV), full length; also called MOPV-NP; MOPV NP; not shown: thioredoxin, N-terminal, cleaved; His6, N-terminal, cleaved
Usually stoichiometry N stands for a count of units in the complex or per binding partner. Take B1: the “stoichiometry N” value is 7.
